Test results published in the DeepSol protein solubility set.

assay: soluble on expression in E. coli; label from the status in PepcDB or PDB records

Sequence | soluble on expression in E. coli
AIASSLVYPVSQSYHYLSTSNNRLFSAVPSEEKSNKEVKGKAQETSKENTSPATLQDSFGFQLKTGTPDRMPSSFDQATGSERAELEDPDLYRNPEKYVNSRVMIAPFGTKEKPLLIPSRYDSRIIGCTGREAPNDHGVYYMTVKENHDKVCPLCGQVFRLKKVAGGEEASHHHHE | soluble
AIATDCEWFDMTWGSSASSGYCSQSDSDEHELELFYTARTSLRKSRKCRDKDEQSEVDWRKQDLSVTEIQQKVKEYNAQVNSNLFMVLNRDGSYTGFIKVQFKLARPVSLPPPRSVSSSSISSSCLGWDGGCQERTSFYLPRDTVKHLHISSSTRAREVIQALLNKFTVVDNPAKYSLYERSQRDNQVYLRKLADDECPLFLRLCAGPNEKVLSLVLKENETGEVNWDAFSFPELQNFLRILQREEEDHVRQIIRRYTLARDKMKEAMKNFSTPG | soluble
AIAVLLRHPVLGTEQLPDSWPSHWNTAIVGIPGYSRQRSDLSVVKDVSSPCLPLVAMPSCDDGLASLWNDVSRAV | soluble
AKMLGLDFVAVVPRSTSGAKIALIEAQGGRCHFIDRPPEIYSEARRLAAETNGHFMDQFTHAERATDWRGNNNIAESIYHQMIREEHPVPEWLVMSAGTGGTSATLGRYIRYRRHATRLLVVDPENSAFFGGYDSNSCDYATGMPSRIEGIGRPRVEPSFVGQVIDRMMRVPDAASIATARHASSVLGRRVGGSTGTNLWGAFAVVAEMLAAGRSGSVVTILCDGGERYADTYFDDDWVAGEGIDLTGPAAVLDRFA | not soluble
ALTSNASGTFDGYYYELWKDTGNTTMTVYTQGRFSCQWSNINNALFRTGKKYNQNWQSLGTIRITYSATYNPNGNSYLCIYGWSTNPLVEFYIVESWGNWRPPGATSLGQVTIDGGTYDIYRTTRVNQPSIVGTATFDQYWSVRTSKRTSGTVTVTDHFRAWANRGLNLGTIDQITLCVEGYQSSGSANITQNTFSQSS | soluble
AMDFPQQLEACVKQANQALSRFIAPLPFQNTPVVETMQYGALLGGKRLRPFLVYATGHMFGVSTNTLDAPAAAVECIHAYSLIHDDLPAMDDDDLRRGLPTCHVKFGEANAILAGDALQTLAFSILSDADMPEVSDRDRISMISELASASGIAGMCGGQALDLDAEGKHVPLDALERIHRHKTGALIRAAVRLGALSAGDKGRRALPVLDKYAESIGLAFQVQDDILDVVGDTATLGKRQGADQQLGKSTYPALLGLEQARKKARDLIDDARQSLKQLAEQSLDTSALEALADYIIQRNK | soluble
ANIIANTSLTIGPSKLDVAKITPELLASLNEVGGSEANVATGYHAIEFLLWGQDLNGTNAGAGKRAYTDFVVGSGCTNGHCDRRGEYLKAAADLLVQDLEWMEKQWSADEKGNYRQELLTGSAENGLRKMLFGMGSLSLGELAGERMKVALEANSTEDEHDCFSDNTHNSHYYNEQGIYNVYTGTYSRQDGTVLTGPSIANLVAQEDKKAAEEIQKQFDATRSQVGELVTSAEKHNQHFDQLIAAGNAQGNALVNDTIMALVAQTGAIERAAGIVGIDSLSPDTADHEF | not soluble
AQKLSATSRILSSSRGPAPDDIADFFGTDRAAQHITLRRLRLGNGRPYAIDNGWYNSEFAPDLLENDVYNSVYSILDRVYGVPVTQAEQTVTAVAADEDTARLLDVTPGAPLLRILRQSLSGDKPVEWCVSLYRTDRYS | not soluble
AQLQNLVLKDREATPNDHTFVPRDIRDNVGEVVESTGVPIGESRFTISLRKTSNGRYKSTLKLVVPVVQSQTVNGIVTPVVVRTSYVTVDFDYDARSTTKERNNFVGMIADALKADKMLVHDTIVNLQGVY | soluble
ASDDELFSMLDQRFGGGEDLLMSGDNGMTEEKLRRYLKRTVTELDSVTARLREVEHRAGE | soluble
ASEEDLAAATEKMQSMKGKKSQAAAALEAEQAKAEKRLSCLLKARTKLSFRVIRDGIKCHGGIHLKKQSEKAELDISVTNTAINNLPSDADIVITHKDLTDRAKAKLPNATHISVDNFLNSPKYDELIEKLKSNLIEREYCHASTRKGNIKLNQTVSSKEEAIKLAGQTLIDNGYVTEDYISKMFDREETSSTFMGNFIAIPHGTEEAKSEVLHSGISIIQIPEGVEYGEGNTAKVVFGIAGKNNEHLDILSNIAIICSEEETLNA | not soluble
ASEKLRSKLMSADEAAQFVNHGDKVGFSGFTGAGYPKALPTAIANRAKEAHGAGNDYAIDLFTGASTAPDCDGVLAEADAIRWRMPYASDPIMRNKINSGSMGYSDIHLSHSGQQVEEGFFGQLNVAVIEITRITEEGYIIPSSSVGNNVEWLNAAEKVILEVNSWQSEDLEGMHDIWSVPALPNRIAVPINKPGDRIGKTYIEFDTDKVVAVVETNTADRNAPFKPVDDISKKIAGNFLDFLESEVAAGRLSYDGYIMQSGVGNVPNAVMAGLLESKFENIQAYTEVIQDGMVDLIDAGKMTVASATSFSLSPEYAEKMNNEAKRYRESIILRPQQISNHPEVIRRVGLIATNGLIEADIYGNVNSTNVSGSRVMNGIGGSGDFTRNGYISSFITPSEAKGGAISAIVPFASHIDHTEHDVMVVISEYGYADLRGLAPRERVAKMIGLAHPDYRPLLEEYYARATSGDNKYMQTPHDLATAFDFHINLAKNGSM | not soluble
ASGRRAPRTGLLELRCGAGSGAGGERWQRVLLSLAEDALTVSPADGEPGPEPEPAQLNGAAEPGAAPPQLPEALLLQRRRVTVRKADAGGLGISIKGGRENKMPILISKIFKGLAADQTEALFVGDAILSVNGEDLSSATHDEAVQALKKTGKEVVLEVKYMKEVSPYFKNSAGGTSVGWDSPPASPLQRQPSSPGPQPRNLSEAKHVSLKMAYVSRRCTPTDPEPRYLEICAADGQDAVFLRAKDEASARSWAGAIQAQIGT | soluble
ASIKENSYFAGGVKSLGFNQHGQDVSVGVMLPGEYTFGTQAPERMTVVKGALVVKRVGEADWTTYSSGESFDVEGNSSFELQVKDATAYLCEYL | soluble
ASLSPQPDVSGELNTEALTCIVERLESEIIDGSWIHISYEETDLEMMPFLVAQANKKYPELNLKFVMSVHELVSSIKETRMEGVESARFLVNMGSSGIHISVVDFRVMDGKTSVILFEPAACSAFGPALLALRTKAALEREQLPDCYFAMVELDIQRSSSECGIFSLALAKKLQLEFMNLVKIHEDNICERLCGEEPFLPSDKADRYLPVSFYKHTQGAQRLNEYVE | not soluble
ASMTGGQQMGRILVAVLISGTGSNLQALIDSTREPNSSAQIDIVISNKAAVAGLDKAERAGIPTRVINHKLYKNRVEFDSAIDLVLEEFSIDIVCLAGFMRILSGPFVQKWNGKMLNIHPSLLPSFKGSNAHEQALETGVTVTGCTVHFVAEDVDAGQIILQEAVPVKRGDTVATLSERVKLAEHKIFPAALQLVASGTVQLGENGKICWVKEEPLEHHHHHH | soluble
ASNIYRLQQAAEAAVKTGRKIAVFGRSMEKAIVNGIELGYIKVPKGTFIEPSELKNLHASEVLIMCTGSQGESMAALARIANGTHRQVTLQPGDTVIFSSSPIPGNTTSVNKLINTIQEAGVDVIHGKVNNIHTSGHGGQQEQKLMLSLIKPKYFMPVHGEYRMQKVHAGLAMDIGIPKENIFIMENGDVLALTSDSARIAGHFNAQDIYVDGNGIGDIGAAVLRDRRDLSEDGVVLAVATVDFNTQMILAGPDILSRGFIYMRESGDLIRESQRVLFNAIRIALKNKDASIQSVNGAIVNALRPFLYEKTEREPIIIPMVL | not soluble
